# Reference: article PMC3323579
# Molecular target: yeast 26S proteasome (RPN11-3XFLAG) (yeast) (UniProt P43588)
# Assay: not given
row,"stimulation of the ATPase activity of the 26S proteasome (580 nM substrate, 37°C, 15 min) [fold]",Substance
1,2,"apomyoglobin (sperm whale myoglobin, heme removed), wild type (from UniProt P02185 1-154) (natural protein)"

# Molecular target: yeast 26S proteasome (RPN11-3XFLAG) (yeast) (UniProt P43588)
# Assay: ELISA; competition: 8 nM apoMb on immobilised 26S proteasome with peptides 100 µM to 0.01 µM; 100 nM MG132 in all incubations; Ki from a one site binding fit
row,percent inhibition of apoMb binding at 100 µM peptide [%],Substance
1,34,myoglobin peptide E7 (69-83)
2,65,myoglobin peptide F7 (90-104)

# Molecular target: yeast 26S proteasome (RPN11-3XFLAG) (yeast) (UniProt P43588)
# Assay: ELISA; 26S proteasome (1 µg/ml, 0.37 nM) captured on plates coated with anti-FLAG antibody; Mb 580 nM to 0.006 nM in TBST with 1 mM ATP, 5 mM MgCl2, 0.1% BSA; bound Mb detected with anti-Mb antibody; one site specific binding fit
row,Substance,Kd [nM]
1,apomyoglobin M131C (H-helix mutant) (natural protein),45
2,apomyoglobin T39C (C-helix mutant) (natural protein),19.5

# Results, then the substance that gave them:
row,Kd [nM],Substance
1,3.5,"apomyoglobin (sperm whale myoglobin, heme removed), wild type (from UniProt P02185 1-154) (natural protein)"
2,1.25,apomyoglobin V10C (A-helix mutant) (natural protein)
3,0.63,apomyoglobin L115C (G-helix mutant) (natural protein)
4,0.6,apomyoglobin L104C (G-helix mutant) (natural protein)
5,0.57,apomyoglobin F-helix mutant G80A/P88A/S92A/H97N (natural protein)
